Patent US12517114B2, “Primary gastrointestinal stromal tumor cell culture medium, culture method and application thereof” (PRECEDO PHARMACEUTICALS CO., LTD, priority 2021, dated 2026)

System: primary gastrointestinal stromal tumor cells (GIST-1, GIST-2, GIST-3, GIST-4)
Test: Screening of factors added to the culture medium: cell count after 14 days of culture
Format: cell-based, human
Settings: for Level of promoting cell proliferation: additive at the concentration of Table 1 in basic medium vs basic medium, 14 days, 2% oxygen, Collagen I coated plate, four patient samples
Method: Rat tail collagen type I (Collagen type I, manufactured by Corning Inc.) was diluted with ultrapure water in a ratio of 1:50 to prepare a collagen diluent. The collagen diluent was added 500 μl/well into a 24-well culture plate to completely cover the bottom of the culture plate wells. After standing in a incubator at 37° C. for 1 hour, the collagen diluent was removed to provide a culture plate coated with collagen.
First, a basic medium was prepared. To a commercial DMEM/F-12 medium, GlutaMAX-I (manufactured by Thermo Fisher […]) was added at a dilution ratio of 1:100, insulin-containing culture additive Insulin-Transferrin-Selenium-Ethanolamine (ITS-X, manufactured by Gibco) was added at a dilution ratio of 1:100, a ROCK kinase inhibitor Y27632 (manufactured by Sigma) was added at a final concentration of 10 µM, and commercial Primocin solution (manufactured by InvivoGen) (commercial product in concentration of 50 mg/ml) was added at a dilution ratio of 1:500, to obtain the basic medium.
Next, different types of additives (Table 1) were added to the basic medium to prepare culture mediums for gastrointestinal stromal tumor cells containing different components. The culture mediums with different components were added at a volume of 500 μl/well to 24-well plates coated with Collagen I, with 3 wells for per medium formulation. The GIST cells (GIST-1) isolated from GIST tissues in Section (1) of this example were inoculated in the 24-well culture plate coated with Collagen I at a cell density of 3×10^4/well, and were cultured under different medium formulations at 37° C., under 5% CO2 concentration and 2% oxygen concentration. The mediums were renewed every 3 days after the start of the culture. After 14 days of culture, cell counts were performed.
The tumor cells isolated from the other three gastrointestinal stromal tumor tissue samples were also cultured and counted in the same manner as above.

Molecule	Level of promoting cell proliferation	Effect on proliferation of primary gastrointestinal stromal tumor cells (in words) (additive in basic medium, in at least three cases)
platelet-derived growth factor BB: receptor tyrosine kinase ligand, medium additive (R&D) (protein, UniProt P01127 82-190, looked up) Platelet-derived growth …: SLGSLTIAEPAMIAECKTRTEVFEISRRLIDRTNANFLVWPPCVEVQRCSGCCNNRNVQCRPTQVQLRPVQVRKIEIVRKKPIFKKATVTLEDHLACKCETVAAARPVT	+	
fibroblast growth factor 10: receptor tyrosine kinase ligand, medium additive (R&D) (protein, UniProt O15520 38-208, looked up) Fibroblast growth factor 10: QALGQDMVSPEATNSSSSSFSSPSSAGRHVRSYNHLQGDVRWRKLFSFTKYFLKIEKNGKVSGTKKENCPYSILEITSVEIGVVAVKAINSNYYLAMNKKGKLYGSKEFNNDCKLKERIEENGYNTYASFNWQHNGRQMYVALNGKGAPRRGQKTRRKNTSAHFLPMVVHS	+	promote the proliferation
